Experimental data as given in article PMC12556795, “Intrinsically disordered cytoplasmic tail in netrin receptor DCC binds the large ribosomal subunit to inhibit translation” (The Journal of Biological Chemistry, 2025).
Where no end group is shown, it is not given here.

Target: Ribosomal protein eL5/uL18 (H. sapiens rpL5) (H. sapiens, UniProt P46777 1-297)
Assay: NMR titration; 15N-1H HSQC at 25 °C, 35 uM 15N WT N29+P1 or 80 uM KRK→AAA N29+P1 with unlabelled rpL5 at a 1:1 ratio, phosphate buffer pH 6.4 with 5% v/v glycerol; chemical shift perturbations and peak disappearance
Conditions: both partners purified

binding result: binds
B1: DCC C-tail N29+P1 protein (residues 1121-1167) (domain or fragment)
chain: CTRRSSAQQRKKRATHSAGKRKGSQKDLRPPDLWIHHEEMEMKNIEK
modifications: also: Cy5 label via maleimide (MST only), 15N-labelled (NMR only)
notes: Residues 1121-1122 were included to give a terminal cysteine for labelling; also called WT N29+P1; DCC N29-P1; source: E. coli LOBSTR-BL21(DE3), purified (Ni-NTA, Superdex 75)
